Assay: yeast display, Sf9 membrane polyspecificity reagent, FACS + sequencing; frameworks hold sequencing errors
Method in brief: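 A nanobody's polyreactivity label depends on the gate it was sorted from. Yeast display cells were stained with 10% biotinylated, detergent-solubilized Sf9 membrane reagent for 1 hour at 4 °C, enriched on streptavidin microbeads and sorted by FACS. The low and high (top ~1%) gates were set on anti-HA fluorescence for expression and streptavidin fluorescence for reagent binding.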

Sequence: QVQLVESGGGLVQAGGSLRLSCAASGRTFGRYAMGWSRQAPGKERELVAAINRGGSTKYADSVKGRFTISRDNAKNTVYLQMNSLKPEDTAVYYCAKDRHPAVHYDYWGQGTQVTVSS
- polyreactivity (PSR sort gate): low polyreactivity

Sequence: QVQLVESGGGLVQAGGSLRLSCAASGRTFGRYAMGWYRQAPGKEREFVASISRRGGSTNYADSVKGRFTISRDNAKNTVYLQMNSLKPEDTAVYYCAKRFTLPLSEYDYWGQGTQVTVSS
- polyreactivity (PSR sort gate): high polyreactivity

Sequence: QVQLVESGGGLVQAGGSLRLSCAASGRTFGRYAMGWYRQAPGKERELVAAISIRGGRTTYADSVKGRFTISRDNAKNTVYLQMNSLKPEDTAVSYCAKVISVRGGYGYWGQGTQVTVSS
- polyreactivity (PSR sort gate): high polyreactivity

Sequence: QVQLVESGGGLVQAGGSLRLSCAASGRTFGRYAMGWYRQAPGKERELVAAITRGGSTNYADSVKGRFTISRDNAKNTVYLQMNSLKPEDTAVYYCAKSVRYRYDYWGQGTQVTVSS
- polyreactivity (PSR sort gate): high polyreactivity

Sequence: QVQLVESGGGLVQAGGSLRLSCAASGRTFGRYAMGWYRQAPGKERELVATISVSSGSTYYADSVKGRFTISRDTAKNTVYLQMNSLKPEDTAVYYCNAVYGRQYRGYNYKYYYWGQGTQVTVSS
- polyreactivity (PSR sort gate): high polyreactivity

Sequence: QVQLVESGGGLVQAGGSLRLSCAASGRTFGRYAMGWYRQAPGKERELVATITSGGSTNYADSVKGRFTITRDNAKNTVYLQMNSLKPEDTAVYYCAAEFSPSRWAYSEGALRYNYWGQGTQVTVSS
- polyreactivity (PSR sort gate): low polyreactivity

Sequence: QVQLVESGGGLVQAGGSLRLSCAASGRTFGRYAMGWYRQAPWKERELVAVINGGGSTYYADSVKGRFTISRDNAKNTVYLQMNSLKPEDTAVDYCAVGGYTRTGGWFDYWGQGTQVTVSS
- polyreactivity (PSR sort gate): high polyreactivity

Sequence: QVQLVESGGGLVQAGGSLRLSCAASGRTFGRYAMGWYRQATGKERELVAAISTGGRTYYADSVKGRFTISRDNAKNTVYLQMNSLKPEDTEVYYCNRVVVVGILEMGYWGQGTQVTVSS
- polyreactivity (PSR sort gate): low polyreactivity

Sequence: QVQLVESGGGLVQAGGSLRLSCAASGRTFGRYARGWYRQAPGKETELVAAIRSGASTYYADSVKGRFTISRDNAKNTVYLQKNSLKPEDTAVYYCAVDTLQGARVTSPSGDYDYWGQGTQVTVSS
- polyreactivity (PSR sort gate): low polyreactivity

Sequence: QVQLVESGGGLVQAGGSLRLSCAASGRTFGRYVMGWYRQAPGKERELVAAITSSSSSTYADSVKGRFTISRDNAKNTVHLEMNSLKPEDTAVYYCNKRFPSRHRPEYDYWGQGTQVTVSS
- polyreactivity (PSR sort gate): high polyreactivity

Sequence: QVQLVESGGGLVQAGGSLRLSCAASGRTFGSNAMGWYRQAPGKERELVAAISFSGGSTYYADSVKGRFTISRDNAKNTVYLQMNSLKPEDTAVYYCAAEYPQKGDRGSRRRIDGYWGQGTQVTVSS
- polyreactivity (PSR sort gate): high polyreactivity

Sequence: QVQLVESGGGLVQAGGSLRLSCAASGRTFGSNAMGWYRQAPGKERELVAAISLRGGRTYYADSVKGRFTISRDNAKNTVYLQMNSLKPEDTAVYYCNAVHYLYGARSRLTYDYWGQGTQVTVSS
- polyreactivity (PSR sort gate): high polyreactivity

Sequence: QVQLVESGGGLVQAGGSLRLSCAASGRTFGSNAMGWYRQAPGKERELVAVISRRAGSTYADSVKGRFTISRDNAKNTVYLQMNSLKPEDTAVYYCATRWLYHQYYYWGQGTQVTVSS
- polyreactivity (PSR sort gate): high polyreactivity

Sequence: QVQLVESGGGLVQAGGSLRLSCAASGRTFGSYAMGWNRQAPGKERELVAAISSSGGRTYYADSVKGRFTISRDNAKNTVYLQMNSLKPEDTGVYYCNADVQWNIWEYDYWGQGTQVTVSS
- polyreactivity (PSR sort gate): high polyreactivity

Sequence: QVQLVESGGGLVQAGGSLRLSCAASGRTFGSYAMGWYRQAPGKEREFVASITGATTNYADSVKGRFTISRDNAKNTVYLQMNSLKQEDTAVYYCATDVGFGRKQRPHRPGYGYWGQGTQVTVSS
- polyreactivity (PSR sort gate): low polyreactivity

Sequence: QVQLVESGGGLVQAGGSLRLSCAASGRTFGSYAMGWYRQAPGKERELVAAINWSGSSTYYADSVKGRFTISRDNAKNTVYLQMNSLKPEDTAVYYCAATPSFYRSYQGMDYWGQGTQVTVSS
- polyreactivity (PSR sort gate): high polyreactivity

Sequence: QVQLVESGGGLVQAGGSLRLSCAASGRTFGSYAMGWYRQAPGKERELVAAISSGGRTYYADSVKGRFTISRDNAKNTVYLQMNSLKPEDTAVYYCAARLISYKTPGGYNYWGQGTQVTVSS
- polyreactivity (PSR sort gate): high polyreactivity

Sequence: QVQLVESGGGLVQAGGSLRLSCAASGRTFGSYAMGWYRQAPGKERELVAAISVSGDSTFYADSVKGRFTISRDNAKNTVYLQMNSLKQEDTAVYYCAARDYVEFWGQGTQVTVSS
- polyreactivity (PSR sort gate): low polyreactivity

Sequence: QVQLVESGGGLVQAGGSLRLSCAASGRTFGSYAMGWYRQAPGKERELVAAISYRGSTYYADSVKGRFTISRDNAKNTVYLQMNSLKPEDTAVYYCAARSYGGYGYWGQGTQVTVSS
- polyreactivity (PSR sort gate): high polyreactivity

Sequence: QVQLVESGGGLVQAGGSLRLSCAASGRTFGSYVMGWYRQAPGKERELVATISRRGGTTYYADSVKGRYTISRDNAKNTVYLQMNSLKPEDTAVYYCAAKYFGTRYDYWGQGTQVTVSS
- polyreactivity (PSR sort gate): high polyreactivity

Sequence: QVQLVESGGGLVQAGGSLRLSCAASGRTFGTNAMGWYRLAPGKEWELVASISGGTRTNYADSVKGRFTISRDNAKNTVYLQMNSLKPEDTAVYSCAAEVGLPTWYTLPVDDYDYWGQGTQVTVSS
- polyreactivity (PSR sort gate): low polyreactivity

Sequence: QVQLVESGGGLVQAGGSLRLSCAASGRTFGTYDMGWYRQAPGKERELVAGINGSGGSTYYADSVKGRFTISRDNAKNTVYLQMNSLKPEDTAVYYCAADRRFSTYDYWGQGTQVTVSS
- polyreactivity (PSR sort gate): high polyreactivity

Sequence: QVQLVESGGGLVQAGGSLRLSCAASGRTFGVNAMGGYRQAPGKERELVAAISKRGGSTYYADSVKGRFTISRDNAKNTVYLQMNSLKPEDTAVYYCAKDQPHRGPMDYWGQGTQVTVSS
- polyreactivity (PSR sort gate): high polyreactivity

Sequence: QVQLVESGGGLVQAGGSLRLSCAASGRTFGVNAMGWYRQAPGKERELVAVISRSTGSTYYADSVKGRFTISRDNAKNTVYLQMNSLKPEDTAVYYCAAGFWVRGFRRFDYWGQGTQVTVSS
- polyreactivity (PSR sort gate): high polyreactivity

Sequence: QVQLVESGGGLVQAGGSLRLSCAASGRTFGVNAMGWYRQAPRKERELVAAINRGGSTYYADSVKGRFTISRDNAKNTVYLQMISLNPEDTAVYYCAAYVSAVHGISGYWGQGTQVTVSS
- polyreactivity (PSR sort gate): low polyreactivity

Sequence: QVQLVESGGGLVQAGGSLRLSCAASGRTFGVNMGWYRQAPGKERELVAGITSGGSTYYADSVKGRFTISRDNAKNTVYLQMNSLKPEDTAVFYCAKSYRGKWSPYYYWGQGTQVTVSS
- polyreactivity (PSR sort gate): high polyreactivity

Sequence: QVQLVESGGGLVQAGGSLRLSCAASGRTFGVYVMGWSRQAPGKERELVAVITISGGSTYYADSVKGRFTISRDNAKNTVYLQMNSLKPEDTAVYYCAARTYYGYDYWGQGTQVTVSS
- polyreactivity (PSR sort gate): high polyreactivity

Sequence: QVQLVESGGGLVQAGGSLRLSCAASGRTFGWYAMGWYRQAPGKEREFVAVISRSGTNTYYADSVKGRFTISRDNAKNTVYLQMNSLKPEDTAVYYCAAVRSSQSYYYWGQGTQVTVSS
- polyreactivity (PSR sort gate): high polyreactivity

Sequence: QVQLVESGGGLVQAGGSLRLSCAASGRTFGWYTKGWYRQAPGKERELVAAISRSGTSTYYADSVKGRFTISRDNAKNTVYLQMNSLKPEDTAVYYCAAGPWAYGRRHSYYSYGYWGQVTQVTVSS
- polyreactivity (PSR sort gate): high polyreactivity

Sequence: QVQLVESGGGLVQAGGSLRLSCAASGRTFGWYTMGWYRQAPGKEREFVAAISSSDTSTYYADSVKGRFTISRDNAKNTVYLQMNSLKPEDTAVYYCAADPPSWRWFVGYSYDYWGQGTQVTVSS
- polyreactivity (PSR sort gate): low polyreactivity

Sequence: QVQLVESGGGLVQAGGSLRLSCAASGRTFGYNAMGRYRQAPGKERELVAAIRYSGGSTYYADSVKGRFTISRDNAKNTVYLQMNSLKPEDTAVYYCAKESRRYYRGYYYWGQGTQVTVSS
- polyreactivity (PSR sort gate): high polyreactivity

Sequence: QVQLVESGGGLVQAGGSLRLSCAASGRTFGYNAMGWYIQAPGKERELVAAINWSGASTYYADSVKGRFTISRDNAKNTVYLQMNSLKPEDTAVYYCAADYSYIYGFDYWGQGTQVTVSS
- polyreactivity (PSR sort gate): low polyreactivity

Sequence: QVQLVESGGGLVQAGGSLRLSCAASGRTFGYNAMGWYRQAPGKERELVASISWSGGTTYYADSVKGRFTISRDNAKNTVYLQMNSLKPEDTAVYYCAADRQSYVTRLYRSYWGNYWGQGTQVTVSS
- polyreactivity (PSR sort gate): high polyreactivity

Sequence: QVQLVESGGGLVQAGGSLRLSCAASGRTFGYNAMGWYRQAPGKESEFVAAISWSGGRTYYADSVKGRFTISRDNAKNTVYLQMNSLKPEDTAVYYCAAGFGDGPGNGYYTRYSWDDDYWGQGTQVTVSS
- polyreactivity (PSR sort gate): low polyreactivity

Sequence: QVQLVESGGGLVQAGGSLRLSCAASGRTFGYNTMGWYRQAPGKERELVATIRTNGVSTYYADSVKGRFTISRDNAKNTVYLQMNSLKPEDTAVYYCNAPRTRKQKTIYVNAPGNYWGQGTQVTVSS
- polyreactivity (PSR sort gate): low polyreactivity

Sequence: QVQLVESGGGLVQAGGSLRLSCAASGRTFGYNVMGWYRQAPGKERELVAAINRGGGSTYYADSVKGRFTISRDNANNTVYLQMNSLKPEDTAVYYCIKRYRVWFDYWGQGTQVTVSS
- polyreactivity (PSR sort gate): high polyreactivity

Sequence: QVQLVESGGGLVQAGGSLRLSCAASGRTFGYNVMGWYTQAPGKERELVAGISESGGRTYYADSVKGRVTISRDNAKNTVYLQMNSLKPEDTAVYYCAKRYQRASYDYWGQGTQVTVSS
- polyreactivity (PSR sort gate): high polyreactivity

Sequence: QVQLVESGGGLVQAGGSLRLSCAASGRTFGYYALGWYRQAPGKERELVAAISSNTDSTYYADSVKGRFTISRDNEKNTVYLQMNSLKPEDTAVYYCAAEAYSYYPGTYEDDYWGQGTQVTVSS
- polyreactivity (PSR sort gate): low polyreactivity

Sequence: QVQLVESGGGLVQAGGSLRLSCAASGRTFGYYAMGWYRPAPGKERELVAAITSSSSTNYADSVKGRFTISRDNAKNTVYLQMNSLKPEDTAVYYCAAYGYYRSGYRALEGYWGQGTQVTVSS
- polyreactivity (PSR sort gate): high polyreactivity

Sequence: QVQLVESGGGLVQAGGSLRLSCAASGRTFGYYAMGWYRQAPGKEREFVAAIWGGTSTYYADSVKGRFTISRDNAKNTVYLQMNSLKPEDTAVYYCAAEGWLYPTGYSTLHYEYDYWGQGTQVTVSS
- polyreactivity (PSR sort gate): low polyreactivity

Sequence: QVQLVESGGGLVQAGGSLRLSCAASGRTFGYYAMGWYRQAPGKERELVAAISWRGGSTYYADSVKGRFTISRDNAKNTVYLQMNSLKPEDTAVYYCNRAYVYPQGPYPYDYWGQGTQVTVSS
- polyreactivity (PSR sort gate): high polyreactivity

Sequence: QVQLVESGGGLVQAGGSLRLSCAASGRTFGYYAMGWYRQAPGKERELVAALSTSGGSTHYADSVKGRFTISRDNAKNTVSLQMNSLKPEDTAVYYCNARLRTGTPYKYVSYNSWGQGTQVTVSS
- polyreactivity (PSR sort gate): high polyreactivity

Sequence: QVQLVESGGGLVQAGGSLRLSCAASGRTFGYYDMGWYRQAPGKGRELVAAITYSGGNTYYADSVKGRFTISRDNAKITVYLQMNSLKPEDTAVYSCAARSSFFPSYSRYDYWGQGTQVTVSS
- polyreactivity (PSR sort gate): high polyreactivity
